Measurements from patent US20190248900A1 (Y BIOLOGICS, published 2019).

Legend:
Experiment in all cases: ELISA
[1] = target: APCDD1 (Homo sapiens (Human), UniProt Q8J025 27-492)
[2] = target: TNFSF9 (Homo sapiens (Human), UniProt P41273 50-254)
[3] = target: TNF (Homo sapiens (Human), UniProt P01375 77-233)
[4] = target: T1, DKK1 (Homo sapiens (Human), UniProt O94907 32-266)
T1 sequence: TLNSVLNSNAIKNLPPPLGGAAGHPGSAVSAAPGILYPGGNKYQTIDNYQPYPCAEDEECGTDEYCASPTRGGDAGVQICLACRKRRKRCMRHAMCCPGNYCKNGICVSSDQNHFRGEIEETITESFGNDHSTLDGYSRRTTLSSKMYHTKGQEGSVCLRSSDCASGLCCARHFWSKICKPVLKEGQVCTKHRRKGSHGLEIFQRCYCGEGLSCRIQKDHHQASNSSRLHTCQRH

[5] = target: HAPLN4 (Homo sapiens (Human), UniProt Q86UW8 30-402)
HAPLN4, sequence (Q86UW8 30-402 limits assumed): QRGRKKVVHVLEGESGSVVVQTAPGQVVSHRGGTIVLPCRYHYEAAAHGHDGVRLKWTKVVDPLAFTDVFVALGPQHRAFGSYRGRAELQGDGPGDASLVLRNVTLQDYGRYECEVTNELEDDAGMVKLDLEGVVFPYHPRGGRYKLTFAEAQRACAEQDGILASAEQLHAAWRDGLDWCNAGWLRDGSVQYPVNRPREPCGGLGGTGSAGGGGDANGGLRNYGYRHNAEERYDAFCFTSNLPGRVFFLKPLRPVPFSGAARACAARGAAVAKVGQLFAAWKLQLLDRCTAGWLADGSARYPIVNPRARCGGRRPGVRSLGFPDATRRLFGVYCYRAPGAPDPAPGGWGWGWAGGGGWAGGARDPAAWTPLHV

[6] = target: T2, ULBP1 (Homo sapiens (Human), UniProt Q9BZM6 26-216)
T2 sequence: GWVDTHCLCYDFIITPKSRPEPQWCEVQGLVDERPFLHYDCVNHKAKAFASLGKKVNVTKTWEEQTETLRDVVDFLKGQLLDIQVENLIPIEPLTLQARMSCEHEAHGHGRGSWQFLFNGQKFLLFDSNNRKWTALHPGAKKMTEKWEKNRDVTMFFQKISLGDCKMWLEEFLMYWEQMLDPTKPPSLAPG

[7] = target: T3, WFDC2 (Homo sapiens (Human), UniProt Q14508 31-124)
T3 sequence: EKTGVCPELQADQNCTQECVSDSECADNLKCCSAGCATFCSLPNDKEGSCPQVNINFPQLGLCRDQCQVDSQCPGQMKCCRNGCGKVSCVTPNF

[8] = target: T4, AGR2 (Homo sapiens (Human), UniProt O95994 21-175)
T4 sequence: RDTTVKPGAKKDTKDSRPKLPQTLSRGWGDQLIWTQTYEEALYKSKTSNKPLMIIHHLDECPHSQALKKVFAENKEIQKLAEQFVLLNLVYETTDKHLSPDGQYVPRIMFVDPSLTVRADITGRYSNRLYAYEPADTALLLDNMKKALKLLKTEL

[9] = target: T5, CREG1 (Homo sapiens (Human), UniProt O75629 32-220)
T5 sequence: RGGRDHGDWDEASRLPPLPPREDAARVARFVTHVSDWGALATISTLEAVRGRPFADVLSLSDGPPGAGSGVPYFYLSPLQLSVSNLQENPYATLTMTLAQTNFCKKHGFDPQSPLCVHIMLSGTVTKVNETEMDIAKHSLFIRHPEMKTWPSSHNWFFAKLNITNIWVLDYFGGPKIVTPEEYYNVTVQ

[10] = target: T6, EV12A (Homo sapiens (Human), UniProt P22794 31-133)
T6 sequence: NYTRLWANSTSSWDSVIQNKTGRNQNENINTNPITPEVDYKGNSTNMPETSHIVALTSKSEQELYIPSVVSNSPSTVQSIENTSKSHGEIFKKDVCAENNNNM

[11] = target: T7, BTN2A1 (Homo sapiens (Human), UniProt Q7KYR7 29-248)
T7 sequence: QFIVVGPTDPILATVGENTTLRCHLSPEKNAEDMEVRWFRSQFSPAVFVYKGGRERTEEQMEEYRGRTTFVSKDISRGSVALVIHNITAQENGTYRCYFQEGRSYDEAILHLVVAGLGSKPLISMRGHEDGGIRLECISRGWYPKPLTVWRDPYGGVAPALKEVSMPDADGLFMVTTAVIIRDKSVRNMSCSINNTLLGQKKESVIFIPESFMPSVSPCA

[12] = target: T8, CD209 (Homo sapiens (Human), UniProt Q9NNX6 59-404)
T8 sequence: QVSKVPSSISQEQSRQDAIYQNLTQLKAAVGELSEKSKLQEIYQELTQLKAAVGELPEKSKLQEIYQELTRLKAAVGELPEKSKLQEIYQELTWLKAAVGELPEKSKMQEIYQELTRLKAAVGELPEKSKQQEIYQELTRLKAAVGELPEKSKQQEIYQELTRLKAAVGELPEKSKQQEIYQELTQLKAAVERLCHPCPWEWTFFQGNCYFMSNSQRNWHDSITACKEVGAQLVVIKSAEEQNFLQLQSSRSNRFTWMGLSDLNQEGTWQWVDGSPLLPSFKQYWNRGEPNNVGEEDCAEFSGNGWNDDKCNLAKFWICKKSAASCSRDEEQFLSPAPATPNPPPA

[13] = target: T9, SPARC (Homo sapiens (Human), UniProt P09486 18-303)
T9 sequence: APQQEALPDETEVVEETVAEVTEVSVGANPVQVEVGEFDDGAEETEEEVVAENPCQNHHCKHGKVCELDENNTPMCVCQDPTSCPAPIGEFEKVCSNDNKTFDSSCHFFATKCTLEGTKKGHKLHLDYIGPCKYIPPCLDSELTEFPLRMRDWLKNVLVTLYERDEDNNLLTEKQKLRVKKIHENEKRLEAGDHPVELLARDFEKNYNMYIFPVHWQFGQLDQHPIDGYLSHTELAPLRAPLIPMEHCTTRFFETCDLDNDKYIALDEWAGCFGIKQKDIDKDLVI

[14] = target: T10, NRG4 (Homo sapiens (Human), UniProt Q8WWG1 1-62)
T10 sequence: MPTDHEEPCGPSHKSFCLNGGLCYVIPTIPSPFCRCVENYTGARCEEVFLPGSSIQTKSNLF

Measured: binding result

TNF, sequence (P01375 77-233 limits assumed): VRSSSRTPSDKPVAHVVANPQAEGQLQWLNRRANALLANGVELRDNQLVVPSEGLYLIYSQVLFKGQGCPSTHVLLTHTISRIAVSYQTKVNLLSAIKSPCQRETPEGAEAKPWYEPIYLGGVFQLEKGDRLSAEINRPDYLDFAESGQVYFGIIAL
APCDD1, sequence (Q8J025 27-492 limits assumed): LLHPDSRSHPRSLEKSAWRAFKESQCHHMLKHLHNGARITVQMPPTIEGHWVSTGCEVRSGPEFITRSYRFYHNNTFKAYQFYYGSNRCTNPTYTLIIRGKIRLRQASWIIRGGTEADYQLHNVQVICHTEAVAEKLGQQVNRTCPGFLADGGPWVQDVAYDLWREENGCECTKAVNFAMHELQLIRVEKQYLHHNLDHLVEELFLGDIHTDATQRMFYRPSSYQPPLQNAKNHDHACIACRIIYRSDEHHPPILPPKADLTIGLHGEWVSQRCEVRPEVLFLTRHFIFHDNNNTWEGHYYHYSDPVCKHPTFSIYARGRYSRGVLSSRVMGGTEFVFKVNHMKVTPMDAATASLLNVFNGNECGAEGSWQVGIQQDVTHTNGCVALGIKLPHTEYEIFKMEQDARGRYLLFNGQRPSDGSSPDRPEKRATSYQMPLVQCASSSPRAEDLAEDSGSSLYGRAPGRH
TNFSF9, sequence (P41273 50-254 limits assumed): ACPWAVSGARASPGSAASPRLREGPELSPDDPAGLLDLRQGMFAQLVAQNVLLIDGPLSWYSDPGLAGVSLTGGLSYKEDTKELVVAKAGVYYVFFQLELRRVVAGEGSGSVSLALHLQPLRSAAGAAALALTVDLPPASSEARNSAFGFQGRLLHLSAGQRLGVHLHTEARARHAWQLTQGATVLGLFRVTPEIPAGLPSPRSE

B1: PD1-41C9 (antibody, V domains shown)
VH: QMQLVESGGGVVQPGRSLRLSCAASGFTFSSYAMHWVRQAPGKGLEWVAVISYDGSNKYYADSVKGRFTISRDNSKNTLYLQMNRLRSEDTAVYYCTTTTFDSWGQGTLITVSS
VL: DIVMTQTPLSLPVTPGEAASISCRSSQSLLDSEDGNTYLDWYLQKPGQSPQLLIYTLSHRASGVPDRFSGSGSGTDFTLKISRVAAEDVGLYYCLQRMGFPYTFGQGTKLDIK
notes: scFv-phage in the screening ELISA; whole IgG in the other assays
no binding (tested: 1 ug/ml): [1] | [2] | [3] | [4] | [5] | [6] | [7] | [8] | [9] | [10] | [11] | [12] | [13] | [14]

B2: PD1-49A2 (antibody, V domains shown)
VH: QVQLVESGGGVVQPGRSLRLSCAASGFTFSSYAMHWVRQAPGKGLEWVAVISYDGSNKYYADSVKGRFTISRDNPKNTLYLQMNSLRAEDTAVYYCTTTTFDSWGRGTLVTVSS
VL: DIVMTQSPLSLPVTPGEPASISCRSSQSLFDSDDGNTYLDWYLQKPGQSPQLLIYTLSHRASGVPDRFSGSGSGTDFTLKISRVEAEDVGIYYCLQRMGFPYTFGQGTKVEIK
notes: scFv-phage in the screening ELISA; whole IgG in the other assays; also called Parent 49A2
no binding (tested: 1 ug/ml): [1] | [2] | [3] | [4] | [5] | [6] | [7] | [8] | [9] | [10] | [11] | [12] | [13] | [14]

B3: PD1-45D6 (antibody, V domains shown)
VH: QVQLVESGGGVVQPGRSLRLSCAASGFTFSSYAMHWVRQVPGKGLEWVAVISYDGNDKYYADSVKGRFTISRDNSKNTLYLQMNSLRAEDTAVYYCVPTTFEYWGQGSQVTVSS
VL: DIVMTQTPLSLPVTPGEAASISCRSSQSLLDSDDGKTYLDWYLQKPGQSPQLLIYTLSYRASGVPDRFSGSGSGTEFNLRISRVEAEDVGIYYCMQRVEFPFTFGQGTKLDIK
notes: as for B1
no binding (tested: 1 ug/ml): [1] | [2] | [3] | [4] | [5] | [6] | [7] | [8] | [9] | [10] | [11] | [12] | [13] | [14]
